# Experimental data: patent US20260242436A1 (HANMI PHARM, published 2026)
# Substitutions are numbered along the chain they refer to.
# B1: interleukin-2 analog 71 (ligand)
# chain: PTSSSTKKTQLQLEHLLLDLQMILNGINNYKNPKLTAMLTKKFYMPKKATELKHLQCLEEELKPLEEVLNLAQSKNFHFEPRDVVSNINVFVLELKGSETTFMCEYADETATIVEFLNRWITFSQSIISTLT
# B2: interleukin-2 analog 99 (ligand)
# chain: B1 chain with K41F, V84L
# B3: interleukin-2 analog 18 (ligand)
# chain: B1 chain with E60Q, F79L, E80R, V84L, V85I, F91I
# B4: interleukin-2 analog 58 (ligand)
# chain: B1 chain with E80D, V84A, V85A
# B5: interleukin-2 analog 97 (ligand)
# chain: B1 chain with K41F, E80D, V84L, V85I
# B6: interleukin-2 analog 55 (ligand)
# chain: B1 chain with Q73H, E80D, V84L, V85I
# B7: interleukin-2 analog 13 (ligand)
# chain: B1 chain with K41A, F79L, E80R, V84L, V85I, F91I
# B8: interleukin-2 analog 102 (ligand)
# chain: B1 chain with A37R, K41F, F91I
# B9: interleukin-2 analog 25 (ligand)
# chain: B1 chain with L18F, F79L, E80R, V84L, V85I, F91I
# B10: interleukin-2 analog 91 (ligand)
# chain: B1 chain with A37R, K41F, E60Q
# B11: interleukin-2 analog 34 (ligand)
# chain: B1 chain with K41F, E80R, D83E, V84L, V85I, F91I
# B12: interleukin-2 analog 74 (ligand)
# chain: B1 chain with A37D, F79Y, E80D
# B13: interleukin-2 analog 88 (ligand)
# chain: B1 chain with A37R, K41F, E60D
# B14: interleukin-2 analog 103 (ligand)
# chain: B1 chain with L17R, Q21E, K41F
# B15: interleukin-2 analog 76 (ligand)
# chain: B1 chain with K42Q, E60R, E80D, V85G
# B16: interleukin-2 analog 75 (ligand)
# chain: B1 chain with Y44A
# B17: interleukin-2 analog 101 (ligand)
# chain: B1 chain with A37R, K41F, V84L, V85A
# B18: interleukin-2 analog 93 (ligand)
# chain: B1 chain with A37R, K41F, D83E, V90T
# B19: interleukin-2 analog 94 (ligand)
# chain: B1 chain with A37R, K41F, L93F, L95F
# B20: interleukin-2 analog 57 (ligand)
# chain: B1 chain with Y44A, Q73H, E80D, V84L, V85I
# B21: interleukin-2 analog 31 (ligand)
# chain: B1 chain with K41F, F79L, E80R, D83E, V84L, V85I, F91I
# B22: interleukin-2 analog 35 (ligand)
# chain: B1 chain with K41F, F79L, E80R, V84L, V85I, F91I, L93F, L95F
# B23: interleukin-2 analog 95 (ligand)
# chain: B1 chain with A37R, K41F, V68G
# B24: interleukin-2 analog 14 (ligand)
# chain: B1 chain with L18Y, F79L, E80R, V84L, V85I, F91I
# B25: interleukin-2 analog 98 (ligand)
# chain: B1 chain with K41F, V85I
# B26: interleukin-2 analog 59 (ligand)
# chain: B1 chain with E80D, V84A, V85A, F91Y
# B27: interleukin-2 analog 41 (ligand)
# chain: B1 chain with A37R, K41F, E80D
# B28: interleukin-2 analog 77 (ligand)
# chain: B1 chain with K42E, E60R, E80D, V84W
# B29: interleukin-2 analog 73 (ligand)
# chain: B1 chain with E80D, V84W
# B30: interleukin-2 analog 90 (ligand)
# chain: B1 chain with A37R, K41W
# B31: interleukin-2 analog 70 (ligand)
# chain: B1 chain with F79Y, E80D
# B32: interleukin-2 analog 104 (ligand)
# chain: B1 chain with L17R, Q21E, A37R, K41F, E60D
# B33: interleukin-2 analog 17 (ligand)
# chain: B1 chain with F79L, E80R, V84L, V85I, V90T, F91I
# B34: interleukin-2 analog 96 (ligand)
# chain: B1 chain with A37R, K41F, V68G, Q73A
# B35: interleukin-2 analog 24 (ligand)
# chain: B1 chain with L18V, F79L, E80R, V84L, V85I, F91I
# B36: interleukin-2 analog 16 (ligand)
# chain: B1 chain with F79L, E80R, V84L, V85I, N87Q, F91I
# B37: interleukin-2 analog 92 (ligand)
# chain: B1 chain with A37R, K41F, V90T
# B38: interleukin-2 analog 61 (ligand)
# chain: B1 chain with F79Y, E80D, V84G, F91Y
# B39: interleukin-2 analog 86 (ligand)
# chain: B1 chain with L17R, Q21E, A37R, K41F
# B40: interleukin-2 analog 100 (ligand)
# chain: B1 chain with A37R, K41F, V84Y
# B41: interleukin-2 analog 105 (ligand)
# chain: B1 chain with L17R, Q21E, A37R, K41F, E67D
# B42: interleukin-2 analog 84 (ligand)
# chain: B1 chain with L17R, Q21E, A37R, K41F, F79V, E80D, V84E
# Tests used:
# [1] = biological target: T1, interleukin-2 beta receptor (SYMANSIS, #4122H) to which a human immunoglobulin Fc region was linked (UniProt P14784 27-239, limits assumed); experiment: SPR (Biacore T200); receptor-Fc captured on anti-human Ig CM5 chip, analog flowed; relative to analog 1 = 100%
# T1 construct: Bought receptor-Fc, captured on anti-human immunoglobulin antibody; also called IL-2Rβ; CD122; not shown: human immunoglobulin Fc region
# T1 sequence (looked up): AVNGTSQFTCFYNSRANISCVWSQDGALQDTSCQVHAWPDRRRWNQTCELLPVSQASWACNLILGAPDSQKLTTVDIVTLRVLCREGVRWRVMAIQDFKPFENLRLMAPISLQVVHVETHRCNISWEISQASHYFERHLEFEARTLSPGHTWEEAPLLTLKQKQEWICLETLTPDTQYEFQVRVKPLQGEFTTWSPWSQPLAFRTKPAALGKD
# Method: (§1) In order to measure the binding affinities of the interleukin-2 analogs obtained in Example 4 for each of interleukin-2 alpha and beta receptors, surface plasmon resonance (SPR, BIACORE T200, GE Healthcare) was used. The binding affinities of the prepared analogs for the alpha and beta receptors were measured, and the binding affinity of each of the prepared analogs was compared with that of interleukin-2 analog 1 (aldesleukin).
# (§2) First, an anti-human immunoglobulin antibody (Abcam, #ab97221) was immobilized to a CM5 chip (GE healthcare) to about 5,000 resonance unit (RU) through amine coupling, and then the interleukin-2 alpha receptor ([…], #4102H) or interleukin-2 beta receptor ([…], #4122H), to each of which a human immunoglobulin Fc region was linked, was bound to the immunoglobulin antibody using an antigen-antibody binding reaction and thus finally immobilized. Thereafter, the recombinant interleukin-2 analog prepared above was diluted with HBS-P+ buffer (Cytiva, BR100671) to various concentrations by serial dilution, and the diluted samples were allowed to flow through CM5 chips, to which the interleukin-2 receptors were finally immobilized, to measure the binding affinity of each interleukin-2 receptor. […] Upon the completion of the measurement, the binding affinity of the receptor was evaluated according to the 1:1 binding fitting model in the Biaevaluation program.
# [2] = biological target: T2, interleukin-2 alpha receptor (SYMANSIS, #4102H) to which a human immunoglobulin Fc region was linked (UniProt P01589 22-213, limits assumed); experiment: as above
# T2 construct: Bought receptor-Fc, captured on anti-human immunoglobulin antibody; also called IL-2Rα; CD25; not shown: human immunoglobulin Fc region
# T2 sequence (looked up): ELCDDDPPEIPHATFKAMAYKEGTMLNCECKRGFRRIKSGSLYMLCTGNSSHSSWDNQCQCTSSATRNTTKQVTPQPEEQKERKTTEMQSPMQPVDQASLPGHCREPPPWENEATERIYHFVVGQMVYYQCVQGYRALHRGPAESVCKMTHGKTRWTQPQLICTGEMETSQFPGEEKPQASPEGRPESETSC
# Method: as §1, §2
Binder,Relative binding affinity (%) [1] [%],Relative binding affinity (%) [2] [%]
B1,17100,–
B2,1510,19.9
B3,35.3,–
B4,7770,–
B5,3020,18.8
B6,3030,–
B7,149,1.1
B8,4450,151
B9,21.7,–
B10,7360,7.9
B11,322,9.4
B12,8150,–
B13,13900,102
B14,13100,6.1
B15,1040,–
B16,9570,–
B17,113,24.7
B18,697,92.8
B19,35.5,–
B20,2570,–
B21,236,5

Binder,Relative binding affinity (%) [1] [%],Relative binding affinity (%) [2] [%]
B22,233,31.7
B23,17.1,10.7
B24,130,–
B25,11100,7.7
B26,1530,–
B27,22800,121
B28,644,–
B29,1590,–
B30,12800,98.4
B31,10200,–
B32,25400,122
B33,9.4,29.6
B34,229,14.9
B35,37.9,–
B36,1260,0.2
B37,1510,97.3
B38,1040,–
B39,18700,71.1
B40,2530,29.1
B41,26800,247
B42,711,–
